Source: article PMC12749690

Experiments:
[1] = molecular target: CtpA_(F105R) mutant (Helicobacter pylori G27); assay: crystal structure; sitting-drop vapour diffusion; wild type: 100 mM bis-Tris-HCl pH 6.5, 100 mM magnesium chloride, 25% PEG 3350, 16 °C; F105R: Morpheus condition A8
[2] = molecular target: CtpA_(S300A/K325A/Q329A) triple mutant (CtpATM) (Helicobacter pylori G27); assay: cryo-EM structure; 2 mg/ml protein on Quantifoil R1.2/1.3 grids, Titan Krios 300 kV
[3] = molecular target: Recombinant HP1076 protein (Helicobacter pylori); assay: MST; CtpA_(S300A) diluted from 165 μM to 5.04 nM, mixed 1:1 with 45 nM RED-NHS-labelled HP1076; Monolith NT.115, 70% excitation power, 40% MST power, 20 °C
[4] = molecular target: CtpAΔN46 (residues 47-454), wild-type H. pylori CtpA (Helicobacter pylori G27); assay: AUC; sedimentation velocity, absorbance, 28,000 rpm, 16 °C, c(s) model in SEDFIT
[5] = molecular target: CtpAΔN46 (residues 47-454), wild-type H. pylori CtpA (Helicobacter pylori G27); assay: crystal structure; sitting-drop vapour diffusion; wild type: 100 mM bis-Tris-HCl pH 6.5, 100 mM magnesium chloride, 25% PEG 3350, 16 °C; F105R: Morpheus condition A8
[6] = molecular target: CtpAΔN46 (residues 47-454), wild-type H. pylori CtpA (Helicobacter pylori G27); assay: cryo-EM structure; 2 mg/ml protein on Quantifoil R1.2/1.3 grids, Titan Krios 300 kV

CtpA_(F105R) mutant (enzyme)
stoichiometry N [1]: 6

CtpA_(S300A/K325A/Q329A) triple mutant (CtpATM) (enzyme)
stoichiometry N [2]: 6

CtpA_(S300A) (inactive mutant of CtpAΔN46) (enzyme)
Kd [3]: 15.4 µM

CtpAΔN46 (residues 47-454), wild-type H. pylori CtpA (enzyme)
stoichiometry N [4]: 6
stoichiometry N [5]: 6
stoichiometry N [6]: 6
